We go through 4 molecules from patent US20240101645A1 (HENRY M JACKSON FOUNDATION FOR THE ADVANCEMENT OF MILITARY …, published 2024).

Assay [1] addresses SARS-CoV-2 S on pseudovirions (Wuhan Hu-1 / IL1/2020, last 18 amino acids removed) (SARS-CoV-2, UniProt P0DTC2 14-1273). Nature of the assay: cell-based or functional assay.
In assay [2] the target is SARS-CoV-1 spike antigens (bead panel) (SARS-CoV-1, UniProt P59594 14-1195). Nature of the assay: multiplex bead assay.
Assay [3] concerns the target T1, MERS-CoV spike antigens (bead panel) (MERS-CoV, UniProt K9N5Q8 18-1296).
T1 sequence: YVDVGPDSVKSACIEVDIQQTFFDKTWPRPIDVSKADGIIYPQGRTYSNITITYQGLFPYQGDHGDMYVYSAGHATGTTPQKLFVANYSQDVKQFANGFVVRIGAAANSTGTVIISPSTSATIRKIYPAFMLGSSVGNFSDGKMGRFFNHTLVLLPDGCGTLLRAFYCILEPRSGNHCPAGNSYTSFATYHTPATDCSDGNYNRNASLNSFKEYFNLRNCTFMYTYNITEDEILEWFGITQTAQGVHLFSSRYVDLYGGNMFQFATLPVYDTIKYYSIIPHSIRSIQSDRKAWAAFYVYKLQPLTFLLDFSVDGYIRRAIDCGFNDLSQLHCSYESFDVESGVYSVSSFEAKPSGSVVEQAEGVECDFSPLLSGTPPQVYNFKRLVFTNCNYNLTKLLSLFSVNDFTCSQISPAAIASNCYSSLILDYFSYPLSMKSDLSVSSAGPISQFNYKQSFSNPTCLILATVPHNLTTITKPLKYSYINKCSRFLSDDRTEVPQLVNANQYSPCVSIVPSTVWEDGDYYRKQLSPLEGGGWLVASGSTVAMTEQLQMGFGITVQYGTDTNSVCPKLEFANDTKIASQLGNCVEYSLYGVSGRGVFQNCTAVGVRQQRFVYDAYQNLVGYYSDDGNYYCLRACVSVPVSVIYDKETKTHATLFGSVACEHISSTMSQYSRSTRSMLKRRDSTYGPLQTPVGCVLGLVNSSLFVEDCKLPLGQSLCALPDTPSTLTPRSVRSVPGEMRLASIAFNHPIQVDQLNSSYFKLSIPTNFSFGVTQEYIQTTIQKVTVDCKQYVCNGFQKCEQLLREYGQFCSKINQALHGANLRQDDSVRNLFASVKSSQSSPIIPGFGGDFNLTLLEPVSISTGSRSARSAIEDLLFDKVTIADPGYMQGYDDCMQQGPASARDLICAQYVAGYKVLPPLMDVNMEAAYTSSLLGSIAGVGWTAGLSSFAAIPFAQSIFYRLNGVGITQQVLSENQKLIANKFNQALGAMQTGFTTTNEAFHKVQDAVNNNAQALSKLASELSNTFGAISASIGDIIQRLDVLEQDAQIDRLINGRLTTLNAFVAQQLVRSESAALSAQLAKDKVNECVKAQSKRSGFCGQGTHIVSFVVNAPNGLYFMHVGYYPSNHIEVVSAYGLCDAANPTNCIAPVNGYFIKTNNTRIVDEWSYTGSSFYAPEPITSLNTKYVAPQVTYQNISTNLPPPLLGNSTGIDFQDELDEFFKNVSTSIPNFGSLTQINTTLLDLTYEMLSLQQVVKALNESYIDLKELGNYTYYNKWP
In words: multiplex bead assay.

In assay [4] the target is T2, HCoV-HKU1 spike antigens (bead panel) (HCoV-HKU1, UniProt Q5MQD0 13-1300).
T2 sequence: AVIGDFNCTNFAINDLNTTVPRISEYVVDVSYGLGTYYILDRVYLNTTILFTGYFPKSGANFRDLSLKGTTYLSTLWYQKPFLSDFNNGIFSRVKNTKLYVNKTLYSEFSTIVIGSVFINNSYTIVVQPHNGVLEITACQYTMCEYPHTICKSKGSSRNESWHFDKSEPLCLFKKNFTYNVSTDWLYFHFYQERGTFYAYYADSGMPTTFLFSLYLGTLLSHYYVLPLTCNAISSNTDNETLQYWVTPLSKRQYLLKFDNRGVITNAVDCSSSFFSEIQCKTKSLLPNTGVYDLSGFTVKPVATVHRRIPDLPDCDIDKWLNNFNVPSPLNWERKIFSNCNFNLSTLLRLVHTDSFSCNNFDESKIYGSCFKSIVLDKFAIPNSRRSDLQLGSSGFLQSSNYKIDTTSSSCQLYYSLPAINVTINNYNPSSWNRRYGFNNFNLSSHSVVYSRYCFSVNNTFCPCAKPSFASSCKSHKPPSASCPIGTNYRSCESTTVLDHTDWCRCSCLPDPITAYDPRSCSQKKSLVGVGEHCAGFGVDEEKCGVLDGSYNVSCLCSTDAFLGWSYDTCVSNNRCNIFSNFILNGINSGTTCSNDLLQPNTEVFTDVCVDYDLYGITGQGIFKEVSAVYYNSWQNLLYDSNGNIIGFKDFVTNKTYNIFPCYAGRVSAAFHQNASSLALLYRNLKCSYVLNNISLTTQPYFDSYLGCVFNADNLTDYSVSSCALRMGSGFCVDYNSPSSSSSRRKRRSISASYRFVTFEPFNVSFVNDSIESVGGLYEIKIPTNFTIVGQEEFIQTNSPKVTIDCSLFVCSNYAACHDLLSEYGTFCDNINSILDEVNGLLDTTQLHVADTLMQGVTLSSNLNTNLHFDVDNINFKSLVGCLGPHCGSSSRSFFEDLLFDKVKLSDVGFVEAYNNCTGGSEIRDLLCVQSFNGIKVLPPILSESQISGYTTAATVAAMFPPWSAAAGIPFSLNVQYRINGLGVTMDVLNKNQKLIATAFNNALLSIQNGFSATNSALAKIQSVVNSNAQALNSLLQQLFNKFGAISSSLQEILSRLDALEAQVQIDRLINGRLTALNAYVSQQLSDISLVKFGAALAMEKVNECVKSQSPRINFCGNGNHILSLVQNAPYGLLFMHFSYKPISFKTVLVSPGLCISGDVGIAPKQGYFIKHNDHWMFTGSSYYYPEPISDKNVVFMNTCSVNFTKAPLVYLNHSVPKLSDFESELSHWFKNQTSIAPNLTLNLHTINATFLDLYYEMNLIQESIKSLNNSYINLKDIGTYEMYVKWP
Nature of the assay: multiplex bead assay.

Assay [5] addresses T3, HCoV-229E spike antigens (bead panel) (HCoV-229E, UniProt P15423 16-1115).
T3 sequence: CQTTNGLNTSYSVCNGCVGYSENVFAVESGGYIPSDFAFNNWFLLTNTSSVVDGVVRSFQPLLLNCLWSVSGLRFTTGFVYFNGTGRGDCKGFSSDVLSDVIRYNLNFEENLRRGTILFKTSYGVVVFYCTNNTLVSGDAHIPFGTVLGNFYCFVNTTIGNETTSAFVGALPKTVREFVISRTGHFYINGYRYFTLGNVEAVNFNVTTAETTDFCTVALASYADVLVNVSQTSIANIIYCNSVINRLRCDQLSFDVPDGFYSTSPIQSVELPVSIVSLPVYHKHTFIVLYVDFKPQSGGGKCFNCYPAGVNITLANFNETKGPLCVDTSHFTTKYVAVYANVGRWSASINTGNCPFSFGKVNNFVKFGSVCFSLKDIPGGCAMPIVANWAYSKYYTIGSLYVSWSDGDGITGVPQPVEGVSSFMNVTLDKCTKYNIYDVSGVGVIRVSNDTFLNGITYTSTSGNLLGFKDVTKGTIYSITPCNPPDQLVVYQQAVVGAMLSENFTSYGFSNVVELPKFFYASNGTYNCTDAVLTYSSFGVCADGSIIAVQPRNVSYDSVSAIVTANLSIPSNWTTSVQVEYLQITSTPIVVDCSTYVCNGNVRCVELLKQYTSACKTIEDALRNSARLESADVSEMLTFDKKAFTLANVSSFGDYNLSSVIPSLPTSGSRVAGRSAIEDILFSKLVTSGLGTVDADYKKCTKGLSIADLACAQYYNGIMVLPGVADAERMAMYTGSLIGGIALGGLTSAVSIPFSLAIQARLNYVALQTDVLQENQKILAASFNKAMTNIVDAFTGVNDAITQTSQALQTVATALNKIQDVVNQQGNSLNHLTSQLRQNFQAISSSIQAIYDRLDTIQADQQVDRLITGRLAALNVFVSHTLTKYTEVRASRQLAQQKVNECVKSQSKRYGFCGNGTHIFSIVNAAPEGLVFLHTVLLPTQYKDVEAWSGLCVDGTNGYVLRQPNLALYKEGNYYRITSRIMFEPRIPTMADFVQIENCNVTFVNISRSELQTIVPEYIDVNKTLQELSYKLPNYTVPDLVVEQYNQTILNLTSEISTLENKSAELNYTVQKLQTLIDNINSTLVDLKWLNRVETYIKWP
In words: multiplex bead assay.

B1: COV_1063 (antibody, V domains shown)
VH: EEKLVESGGDLVQPGGSLRISCEVSGFSLSKYWMNWVRQAPGKGLQWVANIEEDGSERNYADSVKGRFTISRDNARNSLYLQMNSLRVEDTAVYLCTAGHYAGPWGWGQGTLVTVSS
VL: DIQMTQSPSSLSASVGDRVTVTCRASQDIGHYLAWYQQKPGKTPNLLIYDAFNLESGVPPRFGGSGSGTDFTLTISSLQPEDAATYYCQKYDSVPWTFGQGTKVEIKR
notes: human IgG1
Turning to B1, in assay [1], the “Mean IC50, pSV neutralization” value was at least 25 µg/ml and the “Mean IC80, pSV neutralization” value is at least 25 µg/ml. Besides, the binding result in assay [2] is recorded as “no binding”.

B2: COV_1131 (antibody, V domains shown)
VH: QVQLQESGPGLVKPSETLSLTCSVSGGSISSYYWSWIRQPPGKGLEWIGYISYSGSTNYNPSLKSRVTISVDTSKNQFSLKLSSVTAADTAVYYCARLGFGGIYPSLYDAFDIWGQGTMVTVSS
VL: DIQMTQSPSSLSASVGDRVTITCRASQTISSYLNWYQQKPGKAPNLLIYDASSLQRGVPSRFSGSGSGTDFTLTISSLQPEDFATYYCQQSYSTPRTFGQGTKVEIKR
notes: human IgG1
Take B2: the “Mean IC50, pSV neutralization” value in assay [1] is at least 25 µg/ml. The “Mean IC80, pSV neutralization” value in assay [1] was at least 25 µg/ml. The binding result in assay [3], in assay [4] and in assay [5] was “no binding” throughout.

B3: COV_2064 (antibody, V domains shown)
VH: EVQLVESGGGLVQPGGSLRLSCTASGFTFNNNWMHWVRQVPGKGLVWVSRINTDESSTSYADSVKGRFIISRDNAKNTLYLQMNSLRVEDTAVYYCARSTAQYDIWTGYYYYMDVWGKGTTVTVSS
VL: DIQMTQSPSTLSASVGDRVTISCRASQSISTWLAWYQQKPGKAPNLLIYGASNLGSGVPSRFSGGGSGTEFTLTISSLQSDDFATYYCQRYNSFPYTFGQGTKLEIKR
notes: human IgG1
In the case of B3, the “Mean IC50, pSV neutralization” value in assay [1] is at least 25 µg/ml. The “Mean IC80, pSV neutralization” value in assay [1] is at least 25 µg/ml. In addition, the binding result in assay [3], in assay [4] and in assay [5] was “no binding” in each case.

B4: COV_1116 (antibody, V domains shown)
VH: EVQLVESGGGLVKPGGSLRLSCAASGFTFSSYSMNWVRQAPGKGLEWVSSISSSNAYIYSADSVKGRFTISRDNAKNSLYLQMNSLRADDTAVYYCARGGRGLSSSPGRLDYYYGLDVWGQGTTVTVSS
VL: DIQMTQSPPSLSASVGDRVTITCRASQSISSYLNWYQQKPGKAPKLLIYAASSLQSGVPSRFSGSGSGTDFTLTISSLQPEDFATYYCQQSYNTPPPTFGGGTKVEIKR
notes: human IgG1
Consider B4, for which the “Mean IC50, pSV neutralization” value in assay [1] came to 6.99 µg/ml. The “Mean IC80, pSV neutralization” value in assay [1] was at least 25 µg/ml. For the same molecule, the binding result in assay [3], in assay [4] and in assay [5] was “no binding” in each case.
